According to the Immune Epitope Database (IEDB):

These sequences were tested against HLA-A*01:01 (assay: IEDB peptide-MHC binding, purified MHC/competitive/radioactivity; ≥ and ≤ were set here for values at or beyond the usual limits of such assays). Settings: source organism: Clostridium botulinum.
CSNDKSLVY showed an IC50 of 115 nM. In the case of FLDQWWTEY, the IC50 is reported as 1.1 nM. FVEDPNGKY was tested, and the IC50 was 677 nM. Sequence IIEDQYNRY has an IC50 of 179 nM. ISDESYRVY was tested, and the IC50 was 183 nM. Sequence LTYKYNQFY has an IC50 of 12 nM. In the case of TSIPFLHEY, the IC50 is reported as 618 nM. In the case of TSPYELSLY, the IC50 is reported as 255 nM.

Same assay, conditions: source organism: Clostridium perfringens
With STTAGPNEY the IC50 was 785 nM.

Same assay, conditions: source organism: Hepacivirus hominis
Work on LTPRCMVDY yielded an IC50 of 538 nM. VQDCNCSIY gave an IC50 of 78 nM.

Same assay, conditions: source organism: Hepatitis B virus adw/Okinawa/PODW282
Work on LTKQYLNLY yielded an IC50 of 84 nM. With PTTGRTSLY the IC50 was 54 nM.

Same assay, conditions: source organism: Homo sapiens
With ETLEEITGY the IC50 was 984 nM. GTQLFEDNY was tested, and the IC50 was 237 nM. Sequence TQDLVQEKY has an IC50 of 20 nM. YTAVVPLVY showed an IC50 of 1.5 nM.

Same assay, conditions: source organism: Mycobacterium tuberculosis
HTEFEGQVY showed an IC50 of 6.8 nM. RSARASSRY showed an IC50 of 622 nM. VAEGDTVIY showed an IC50 of 840 nM.

Same assay, conditions: source organism: Neisseria gonorrhoeae
ASADKPYSY gave an IC50 of 280 nM. For GTATYLPPY, the IC50 was 120 nM. In the case of HSAEALQKY, the IC50 is reported as 398 nM. KAEVHTFYY gave an IC50 of 233 nM. LSGNGHFHY gave an IC50 of 125 nM. LTAGLDFAY showed an IC50 of 26 nM. In the case of LTEIDIRDY, the IC50 is reported as 65 nM. NTFVQANLY was tested, and the IC50 was 492 nM.

Each sequence was assayed against HLA-A*01:01 (assay: IEDB peptide-MHC binding, purified MHC/competitive/radioactivity; filed as Kd, often an IC50 or EC50 that approximates it; ≥ and ≤ were set here for values at or beyond the usual limits of such assays). Settings: source organism: Clostridium botulinum.
For DMIVDAIPY, the Kd was at least 50000 nM. GMQNIYIKY showed a Kd of 2470 nM. ITYFKKIYY was tested, and the Kd was 2330 nM. KSKSIFFEY showed a Kd of 7060 nM. LHEYKQGDY was tested, and the Kd was at least 50000 nM. Sequence RNEFSNVEY has a Kd of at least 50000 nM.

Same assay, conditions: source organism: Clostridium perfringens
With LGDGVKDHY the Kd was 11600 nM.

Same assay, conditions: source organism: Hepacivirus hominis
FTIFKIRMY was tested, and the Kd was 3500 nM.

Same assay, conditions: source organism: Hepatitis B virus adw/Okinawa/PODW282
In the case of PLDKGIKPY, the Kd is reported as 2210 nM.

Same assay, conditions: source organism: Hepatitis C virus (isolate Japanese)
Sequence PGDPPQPEY has a Kd of at least 50000 nM.

Same assay, conditions: source organism: Human immunodeficiency virus type 1 (NEW YORK-5 ISOLATE)
ETKLGKAGY was tested, and the Kd was at least 42000 nM. Work on ETPGIRYQY yielded a Kd of 2150 nM.

Same assay, conditions: source organism: Human papillomavirus 16
In the case of FEDPTRRPY, the Kd is reported as at least 50000 nM. In the case of VCDKCLKFY, the Kd is reported as at least 50000 nM.

Same assay, conditions: source organism: Influenza A virus (A/Texas/1/1977(H3N2))
For AFDERRNKY, the Kd was at least 50000 nM.

Same assay, conditions: source organism: Mycobacterium tuberculosis
Sequence SSLGLPVSY has a Kd of 9660 nM. VTPEQRPLY showed a Kd of 2710 nM.

Same assay, conditions: source organism: Neisseria gonorrhoeae
DPEMADVTY showed a Kd of at least 50000 nM. Work on EKEVVPDFY yielded a Kd of at least 50000 nM. FDEKNQDKY was tested, and the Kd was at least 50000 nM. GKDLYYKNY was tested, and the Kd was at least 50000 nM. With GTYDYWAGY the Kd was 1180 nM. IRDMTEKQY showed a Kd of at least 50000 nM. Work on KSWQEWNIY yielded a Kd of 17900 nM. Sequence KTQNGKKQY has a Kd of at least 50000 nM. Work on LSQDALTNY yielded a Kd of 2060 nM. For QNDYDEDDY, the Kd was 14000 nM. QRESTAMAY showed a Kd of at least 50000 nM. For RPDLSLRSY, the Kd was at least 50000 nM. With RSYNLKLSY the Kd was 6220 nM. TTRPGLAGY was tested, and the Kd was at least 35000 nM. Work on VREFPEDQY yielded a Kd of at least 50000 nM. In the case of YDEDDYSYY, the Kd is reported as at least 50000 nM.
